B1: FLAG-tagged KIR3DL1*001 [human] / HLA-B*57:01-LF9 tetramer [human | not stated] (parent complex)
chain 1: HMGGQDKPFLSAWPSAVVPRGGHVTLRCHYRHRFNNFMLYKEDRIHIPIFHGRIFQESFNMSPVTTAHAGNYTCRGSHPHSPTGWSAPSNPVVIMVTGNHRKPSLLAHPGPLVKSGERVILQCWSDIMFEHFFLHKEGISKDPSRLVGQIHDGVSKANFSIGPMMLALAGTYRCYGSVTHTPYQLSAPSDPLDIVVTGPYEKPSLSAQPGPKVQAGESVTLSCSSRSSYDMYHLSREGGAHERRLPAVRKVNRTFQADFPLGPATHGGTYRCFGSFRHSPYEWSDPSDPLLVSVTGNPSSSWPSPTEPSSKSGNPRHLHILIGTSVVIILFILLLFFLLHLWCSNKKNAAVMDQEPAGNRTANSEDSDEQDPEEVTYAQLDHCVFTQRKITRPSQRPKTPPTDTILYTELPNAKPRSKVVSCP
chain 2: not shown
chain 3: not shown
chain 4: LSSPVTKSF

Variants of: B1
Assay: pHLA tetramer staining of transfected HEK293T cells; read off a plot

Row | Variant | response
1 | chain 4 S8A | ~57
2 | chain 4 S8H | ~99
3 | chain 4 S8R | ~72
4 | chain 4 S8L | ~58
5 | chain 4 S8F | ~110

Variants of: B1
Assay: as above
Remark: another data set of the same source

Row | Variant | response
6 | chain 1 L166R | ~8
7 | chain 1 P163S | ~81
8 | chain 1 G138W | ~83
9 | chain 1 P199L | ~71

Variants of: B1
Assay: as above
Remark: another data set of the same source

Row | Variant | response
10 | chain 4 S8E | ~6

From paper PMC4442525 (2015)
